Measurements published in patent US8597645.

Target: Caspase-8 (endogenous, in melanocytes and melanoma cells) (human) (UniProt Q14790)
Test: cell-based or functional assay

Chain of Caspase-8 (endogenous, in melanocytes and melanoma cells) (human) (Q14790 whole entry): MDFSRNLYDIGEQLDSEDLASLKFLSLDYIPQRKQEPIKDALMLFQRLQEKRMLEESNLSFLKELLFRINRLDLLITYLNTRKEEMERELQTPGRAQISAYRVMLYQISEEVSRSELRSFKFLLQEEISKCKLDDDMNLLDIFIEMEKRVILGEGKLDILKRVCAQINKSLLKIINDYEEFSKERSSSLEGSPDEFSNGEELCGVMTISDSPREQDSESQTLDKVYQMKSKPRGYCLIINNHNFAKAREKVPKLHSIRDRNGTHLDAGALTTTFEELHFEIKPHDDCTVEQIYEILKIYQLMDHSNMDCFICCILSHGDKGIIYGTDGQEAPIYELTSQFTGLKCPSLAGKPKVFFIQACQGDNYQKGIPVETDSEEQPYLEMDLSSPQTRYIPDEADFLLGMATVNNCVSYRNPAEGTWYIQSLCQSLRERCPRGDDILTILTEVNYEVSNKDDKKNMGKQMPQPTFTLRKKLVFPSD

Cell permeable caspase inhibitor containing the sequence DEVD (from UniProt P08620 7-22) (peptide)
Concentration needed to block ET-1 induced E-cadherin down-regulation, relative to the 'IETD' inhibitor: 10 fold
